# From patent US20120064547A1 (PROBIODRUG, published 2012)
# Where no end group is shown, it is not given here. Side-chain parts run from the residue outwards. [ ]: non-standard residue; d: D form. SMPH = maleimide crosslinker coupling C-terminal Cys to BSA; pGlu = O=C1CC[C@@H](C(=O)O)N1
# T1: Aβ pE11-40 (N-terminal Glu (position 11 of Aβ) cyclized to pyroglutamate)
# T1 construct: No entry of its own
# T1 peptide: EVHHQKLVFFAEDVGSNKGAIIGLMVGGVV
# T2: Big Gastrin (human, UniProt P01350 59-92, limits assumed, N-terminal pyroglutamate (pGlu peptide))
# T2 construct: Whole peptide or N-terminal region
# T2 peptide (looked up): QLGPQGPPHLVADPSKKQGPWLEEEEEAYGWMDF
# T3: BSA-pGlu-6166 peptide (pGlu-FRHDSGC conjugated to bovine serum albumin)
# T3 construct: also called N3pE-BSA
# T3 peptide: [pGlu]FRHDSGC([SMPH-BSA])
# T4: PepSpot peptide No. 6 pEFRHDSGYEVHHQ
# T4 construct: Spotted on a PepSpot membrane; also called spot number 6; the specific Aβ N3pE-x spot
# T4 peptide: [pGlu]FRHDSGYEVHHQ
# T5: PepSpot peptide No. 5 EFRHDSGYEVHHQ
# T5 construct: Spotted on a PepSpot membrane; also called spot number 5
# T5 peptide: EFRHDSGYEVHHQ
# T6: PepSpot peptide No. 7 FRHDSGYEVHHQK
# T6 construct: Spotted on a PepSpot membrane; also called spot number 7
# T6 peptide: FRHDSGYEVHHQK
# Assays:
# Aβ 4-40 [1] = biological target: T7, Aβ 4-40; assay: N3pE sandwich ELISA (4G8 capture, 6-1-6 detection), peptide at 400 pg/ml
# T7 construct: No entry of its own
# Description: (§1) A 96-well maxisorb plate (Nunc) was coated with capture antibody by incubation of 100 μl per well of 2 μg/ml anti-Aβ antibody 4G8, diluted in D-PBS, overnight at 4° C. The plated was sealed. The coating solution was removed and the surface of the plate was blocked with 200 μl per well PIERCE Protein-free ELISA-Blocker (without Tween-20) for 2 hours at room temperature. Afterwards the plate was washed with 6-times with TBS+0.05% (v/v) Tween-20. Remaining washing solution was removed by tapping of the plate. […] 100 μl of every concentration and 100 μl of dilution buffer (Blank) were pipetted on the plate. The plate was sealed and incubated at 4° C. for 2 hours. Afterwards the plate was washed 6-times with TBS+0.05% (v/v) Tween-20. Remaining washing solution was removed by tapping of the plate. […] The plate was sealed and incubated at 4° C. for 1 hour. Afterwards the plate was washed 6-times with TBS+0.05% (v/v) Tween-20. Remaining washing solution was removed by tapping of the plate. In every well 100 μl SureBlue substrate solution (KPL) were pipetted and the plate was incubated in the dark at room temperature for 30 min. The reaction was stopped by addition of 100 μl per well of 1 M H₂SO₄. The absorbance was measured with TECAN Sunrise at 450 nm corrected by the absorbance at 540 nm.
# Aβ pE11-40 [2] = biological target: T1, Aβ pE11-40; assay: as above
# Description: as §1
# Aβ 1-42 [3] = assay: as above
# Description: as §1
# Aβ 4-40 [4] = biological target: T7, Aβ 4-40; assay: N3pE sandwich ELISA (4G8 capture, 6-1-6 detection), peptide at 12.5 pg/ml
# Description: as §1
# Aβ pE11-40 [5] = biological target: T1, Aβ pE11-40; assay: as above
# Description: as §1
# Aβ 1-42 [6] = assay: as above
# Description: as §1
# Big Gastrin = biological target: T2, Big Gastrin; assay: SPR (Biacore 3000), peptide on CM5 chip, antibody 25 µg/ml
# Description: Beside different Aβ species also the cross reactivity to other pGlu-Peptide, which occur in the human body, was determined. This was made by surface plasmon resonance. Following peptides or there N-terminal region of them were immobilized on the surface of CM5-Chips:
# MCP1, MCP2, big gastrin, gonadoliberin, neurotensin, orexin A, fibronectin, collagen 1 and TRH. As positive control also the binding to AβpE3-40 was analyzed. […] For every interaction of the antibody with the different peptides the association and dissociation was recorded. The cross reactivity was determined by evaluation of the association phase concerning rate and signal at the end. The values for all pGlu-Peptides compared with the signal for AβpE3-40.
# The sensograms of the pGlu peptides were compared with the sensogram for AβpE3-40.
# [7] = biological target: T3, BSA-pGlu-6166 peptide (pGlu-FRHDSGC …); assay: IgG ELISA, hybridoma supernatant on peptide-BSA coat
# Description: (§2) An IgG directed ELISA was used to screen the cell culture supernatant. […] 100 μl undiluted cell culture supernatant was added to each well and incubated for 1 h at RT. Supernatant from SP2/0 cells was used as negative control. Supernatant from the spleen cells was used as positive control.
# N3E-BSA = assay: as above
# Description: as §2
# N11E-BSA = assay: as above
# Description: as §2
# N11pE-BSA = assay: as above
# Description: as §2
# isoDAE-BSA = assay: as above
# Description: as §2
# Aβ N3pE-40 peptide [8] = biological target: T8, Aβ N3pE-40 peptide (N-terminal Glu (position 3 of Aβ) cyclized to pyroglutamate); assay: N3pE sandwich ELISA (4G8 capture, 6-1-6 detection), 3.125 pg/ml peptide
# T8 construct: Synthetic peptide; also called AβpE3-40; amyloid β N3pE-40
# Description: A 96-well maxisorb plate (Nunc) was coated with capture antibody by incubation of 100 μl per well of 2 μg/ml anti-Aβ antibody 4G8, diluted in D-PBS, overnight at 4° C. The plated was sealed. The coating solution was removed and the surface of the plate was blocked with 200 μl per well PIERCE Protein-free ELISA-Blocker (without Tween-20) for 2 hours at room temperature. Afterwards the plate was washed with 6-times with TBS+0.05% (v/v) Tween-20. Remaining washing solution was removed by tapping of the plate. […] 100 μl of every concentration and 100 μl of dilution buffer (Blank) were pipetted on the plate. The plate was sealed and incubated at 4° C. for 2 hours. Afterwards the plate was washed 6-times with TBS+0.05% (v/v) Tween-20. Remaining washing solution was removed by tapping of the plate. […] The plate was sealed and incubated at 4° C. for 1 hour. Afterwards the plate was washed 6-times with TBS+0.05% (v/v) Tween-20. Remaining washing solution is removed by tapping of the plate. In every well 100 μl SureBlue substrate solution (KPL) are pipetted and the plate was incubated in the dark at room temperature for 30 min. The reaction was stopped by addition of 100 μl per well of 1 M H₂SO₄. The absorbance was measured with TECAN Sunrise at 450 nm corrected by the absorbance at 540 nm.
# Aβ 4-40 [9] = biological target: T7, Aβ 4-40; assay: N3pE sandwich ELISA (4G8 capture, 6-1-6 detection), peptide at 25 pg/ml
# Description: as §1
# Aβ pE11-40 [10] = biological target: T1, Aβ pE11-40; assay: as above
# Description: as §1
# Aβ 1-42 [11] = assay: as above
# Description: as §1
# Aβ N3pE-40 peptide [12] = biological target: T8, Aβ N3pE-40 peptide; assay: DotBlot
# Description: A simple DotBlot protocol was accomplished to obtain information about the sensitivity of Aβ N3pE antibody and cell culture supernatants towards the respective native peptide. To that end, Aβ N3pE-40 peptide in descending concentrations (1000 ng-8 ng) was spotted onto small pieces of nitrocellulose membrane, and subsequent experimental procedure was performed as for the PepSpot™ membranes.
# Aβ 4-40 [13] = biological target: T7, Aβ 4-40; assay: N3pE sandwich ELISA (4G8 capture, 6-1-6 detection), peptide at 800 pg/ml
# Description: as §1
# Aβ pE11-40 [14] = biological target: T1, Aβ pE11-40; assay: as above
# Description: as §1
# Aβ 1-42 [15] = assay: as above
# Description: as §1
# Aβ 4-40 [16] = biological target: T7, Aβ 4-40; assay: N3pE sandwich ELISA (4G8 capture, 6-1-6 detection), peptide at 50 pg/ml
# Description: as §1
# Aβ pE11-40 [17] = biological target: T1, Aβ pE11-40; assay: as above
# Description: as §1
# Aβ 1-42 [18] = assay: as above
# Description: as §1
# [19] = biological target: T4, PepSpot peptide No. 6 pEFRHDSGYEVHHQ; assay: PepSpot peptide membrane
# [20] = biological target: T5, PepSpot peptide No. 5 EFRHDSGYEVHHQ; assay: PepSpot peptide membrane
# [21] = biological target: T6, PepSpot peptide No. 7 FRHDSGYEVHHQK; assay: PepSpot peptide membrane
# Aβ 4-40 [22] = biological target: T7, Aβ 4-40; assay: N3pE sandwich ELISA (4G8 capture, 6-1-6 detection), peptide at 200 pg/ml
# Description: as §1
# Aβ pE11-40 [23] = biological target: T1, Aβ pE11-40; assay: as above
# Description: as §1
# Aβ 1-42 [24] = assay: as above
# Description: as §1
# Aβ 4-40 [25] = biological target: T7, Aβ 4-40; assay: N3pE sandwich ELISA (4G8 capture, 6-1-6 detection), peptide at 100 pg/ml
# Description: as §1
# Aβ pE11-40 [26] = biological target: T1, Aβ pE11-40; assay: as above
# Description: as §1
# Aβ 1-42 [27] = assay: as above
# Description: as §1
binder,measurement,setting,value
"Aβ 6-1-6 (monoclonal antibody of hybridoma cell line 6-1-6, DSM ACC 2924) (antibody, V domains shown, Mouse hybridoma IgG; The entries as printed begin with a leader and end with the first residues of the constant region; Heavy chain amplified with primer MHCG1, light chain with MKC; also called clone 6-1-6; N3pE antibody clone 6-1-6) VH: EVQLQQSGPELVKPGASMKISCKASGYSFTGYTMNWVKQSHGKNLEWIGLINPYNGVTRYNQKFKGKATLIVDKSSSTAYMELLSLTSEDSAVYYCTREAKREWDETYWGQGTLVTVSA VL: not shown",absorbance (450 nm corrected by 540 nm),Aβ 4-40 [1],0.044 absorbance
same,absorbance (450 nm corrected by 540 nm),Aβ pE11-40 [2],0.044 absorbance
same,absorbance (450 nm corrected by 540 nm),Aβ 1-42 [3],0.048 absorbance
same,absorbance (450 nm corrected by 540 nm),Aβ 4-40 [4],0.04 absorbance
same,absorbance (450 nm corrected by 540 nm),Aβ pE11-40 [5],0.046 absorbance
same,absorbance (450 nm corrected by 540 nm),Aβ 1-42 [6],0.043 absorbance
same,% cross reactivity (against AβpE3-40),Big Gastrin,< 1%
same,signal in ELISA (OD),[7],1.38 OD 405 nm
same,signal in ELISA (OD),N3E-BSA,0.125 OD 405 nm
same,signal in ELISA (OD),N11E-BSA,0.007 OD 405 nm
same,signal in ELISA (OD),N11pE-BSA,0.014 OD 405 nm
same,signal in ELISA (OD),isoDAE-BSA,0.013 OD 405 nm
same,signal-to-noise ratio at the LOQ,Aβ N3pE-40 peptide [8],1.3
same,absorbance (450 nm corrected by 540 nm),Aβ 4-40 [9],0.044 absorbance
same,absorbance (450 nm corrected by 540 nm),Aβ pE11-40 [10],0.048 absorbance
same,absorbance (450 nm corrected by 540 nm),Aβ 1-42 [11],0.048 absorbance
same,fold sensitivity against clone 12-1,Aβ N3pE-40 peptide [12],125 fold
same,absorbance (450 nm corrected by 540 nm),Aβ 4-40 [13],0.055 absorbance
same,absorbance (450 nm corrected by 540 nm),Aβ pE11-40 [14],0.047 absorbance
same,absorbance (450 nm corrected by 540 nm),Aβ 1-42 [15],0.053 absorbance
same,absorbance (450 nm corrected by 540 nm),Aβ 4-40 [16],0.044 absorbance
same,absorbance (450 nm corrected by 540 nm),Aβ pE11-40 [17],0.045 absorbance
same,absorbance (450 nm corrected by 540 nm),Aβ 1-42 [18],0.05 absorbance
same,binding result,[19],binds
same,binding result,[20],binds
same,binding result,[21],binds
same,absorbance (450 nm corrected by 540 nm),Aβ 4-40 [22],0.046 absorbance
same,absorbance (450 nm corrected by 540 nm),Aβ pE11-40 [23],0.048 absorbance
same,absorbance (450 nm corrected by 540 nm),Aβ 1-42 [24],0.048 absorbance
same,absorbance (450 nm corrected by 540 nm),Aβ 4-40 [25],0.045 absorbance
same,absorbance (450 nm corrected by 540 nm),Aβ pE11-40 [26],0.048 absorbance
same,absorbance (450 nm corrected by 540 nm),Aβ 1-42 [27],0.047 absorbance
